The series can be described thus: soluble on expression in E. coli; label from the status in PepcDB or PDB records.
Turning to “MSLSIRSLFGGLREKILGKNMKIVFPEGNDERVVRAAARLKFEGLLEPIILGQSEEVRNLLTKLGFADQDYTIINPNEYADFDKMKEAFVEVRKGKATLEDADKMLRDVNYFGVMLVKMGLADGMVSGAIHSTADTVRPALQIIKTKPGISRTSGVFLMNRENTSERYVFADCAINIDPTAQELAEIAVNTAETAKIFDIDPKIAMLSFSTKGSGKAPQVDKVREATEIATGLNPDLALDGELQFDAAFVPETAAIKAPDSAVAGQANTFVFPDLQSGNIGYKIAQRLGMFDAIGPILQGLNKPVNDLSRGSSAEDIYKLAIITAAQAIESQGEGHHHHHH”, the “soluble on expression in E. coli” value is recorded as “soluble”.

Take “MSLSISFKDVPAGHWSYKAILDLASKNIVTGYGNGIFGFGDDVTREQVARLMYLQLKPESQENYNNPYNDINDHSTSFKREILALTEMGIFAGDEKGNFRPKASLTREEMAQVLTNAYKLVAKSEHTFVDVDRKSWSNKAISAVQSNRIAAGTGDNMFSPKMNVTREQYVQFLYNATLPYEERPGANQEPKRFANCKEANDAGYYDITRDSPYYGKHLDRDGDGIACERNKSSKEGHHHHHH”: the “soluble on expression in E. coli” value is “not soluble”.

Take “MSLSKEVVYVPTGSIAKERSIFFDLKHMDKLTDLVNSGSFSADSKIKSEASGNIRMDVILSADNKFAAVQLFQFVPYTYQPVTAVHYFTNDAAAAVAAFLTKSQLNEGHHHHHH”: the “soluble on expression in E. coli” value was “soluble”.

Consider “MSLSKFTEMMKNRRSIYALGENLPISKEEVTALVKEVVRESPTAFNSQTQRVVFLFGDAHKKLWAMTEDALKPLTPAEAFPNTQAKLQGFAAGAGTILFFEDTDIVKNLQDSFPLYADNFPVWSEQATGLTQANVWTALAQENIGANLQHYNPVIDEAVAAEWSIPANWNLRAQMVIGSIEAPAGEKEYMEDSARFKEFNEGGSHHHHHH”, for which the “soluble on expression in E. coli” value is “soluble”.

For the sequence “MSLSKVLYIQDHDVTWIQFNRPEKRNAIDEETMDQFAEALAQAKGDQSKVIIVTGAGEKAFCAGGDLSSFHKLKTESEAKAMLAKMAKILLDVYYCPKLTVAALNGAAVGGGCEIAAACDIRLAAPHSKFGFIQGTLGITTGWGGTSFLMTRVQPHVSLEMTMTGKVYSSDVGENLGFIQKVIQKIPFREGVKEWLGLYTVLDQEVLIAYKERHLDRISRKELIWRIEREVAKCAQLWERDAHHEAVDAFLREGHHHHHH”, the “soluble on expression in E. coli” value is “soluble”.

For the sequence “MSLSLFDMFKVGIGPSSSHTVGPMKAGKQFVDDLVEKGLLDNVTRVAVDVYGSLSLTGKGHHTDIAIIMGLAGNEPATVDIDSIPGFIRDVETRERLLLAQGRHEVDFPKDDGMRFHNGNLPLHENGMQIHAWHDDTVIYSKTYYSIGGGFIVDEEHFGQEATNEVTVPYPFKSAKEMLEYCNSTGLSLSGMVMQNELALHSKKEIEEYFGHVWQTMQACIDRGMNTEGVLPGPLRVPRRASALRRMLVSSDKLSSDPMNVIDWVNMFALAVNEENAAGGRVVTAPTNGACGIVPAVLAYYDHFIESVSPDIYTRYFLAAGAIGALYKMNASISGAEVGCQGEVGVACSMAAAGLAELLGASPEQVCVAAEIGMEHNLGLTCDPVAGQVQVPCIERNAIASVKAINAARMAMRRTSAPRVSLDKVIETMYETGKDMNAKYRETSRGGLAIKVQCDEGHHHHHH”, the “soluble on expression in E. coli” value was “soluble”.

Regarding “MSLSLIKVGLVGIGAQMQENLLPSLLQMQDIRIVAACDSDLERARRVHRFISDIPVLDNVPAMLNQVPLDAVVMAGPPQLHFEMGLLAMSKGVNVFVEKPPCATLEELETLIDAARRSDVVSGVGMNFKFARPVRQLREMTQVDEFGETLHIQLNHYANKPRAPLWGLDSTLRSFLLAQAIHTIDLAITFGDGELRRVQSSVQRHDDALIVRADMAFSSGATASLLAGTSFPYFEFDMKLVSSSSTLVELDNLWNITLHEPEHATRPTGAAKRWRGAWQPGPLDSGYERSGYHGELHQFFQAIREHRRFEADFASLLPTYRVIEEICSADAVAQGLQNAHSRIRTGIESLSEGHHHHHH”, the “soluble on expression in E. coli” value is on record as “soluble”.

In the case of “MSLSLPRWKQIVHMLYLKMEFISGGELGEALAVNPRTIRNDIKVINQILMIGGNRIESLPGVGYRLVIGDEKALREALLDDSIGRANMNIVPMFAEDRADYIIRYLLLKNDYVKLETLSEELFVSKSTINLDILEVKRKLKENELKVEKRAGYGIRITGAELAIRFCFSRYLLVESTSPLITETEINFFGEVNLEMMEQIVVSNIAKYNIHMTDISVKNLIIHIAIAVCRVKDNCYVPATDLEDIEFSMPELRAAQGIIKEIDLSEGIRFPESETAYLLLHLSSKNRKSDFNNYREYIIVDKMLEKIKELYGYDFKQDQKMISNIALHLKPAINRIKFNMNIQNPYLKNLKANYPLAFELGLVAKEVLEQELKTNVDEAEVGYLAIHFLYGLDKEEGHHHHHH”, the “soluble on expression in E. coli” value is “soluble”.

For the sequence “MSLSNSLLPPNASGLERDIEQVIVQSTDLPIRIKDLWNPYSCHLSLLPWLAWALSVDEWDDRWPEHIKRQVVQDSFDVHRFKGTPYAVQKALDSLNIKTHLREWWEPDGSQEPGTMTVVALINENLTDDDNGLITEAMLEQVTRVIHTAKRGVIHFDVELGISLDETLGFSGAIGPSIAEIDFSSDFLPIVPEKGSADMAFSAALYGIGSADFLADMSGVVPDEGHHHHHH”, the “soluble on expression in E. coli” value was “not soluble”.

Regarding “MSLSPSPAIPSNTDYPGPHSFDVSFQQSSTAKSATWTYSTELKKLYCQIAKTCPIQIKVMTPPPQGAVIRAMPVYKKAEHVTEVVKRCPNHELSREFNEGQIAPPSHLIRVEGNSHAQYVEDPITGRQSVLVPYEPPQVGTEFTTVLYNFMCNSSCVGGMNRRPILIIVTLETRDGQVLGRRCFEARICACPGRDRKADEDSIRKQQVSDSTKNGDGTKRPFRQNTEGHHHHHH”, the “soluble on expression in E. coli” value was “soluble”.

Take “MSLSQHIRKLDSDVSERLKSQACTVSLASAVREIVQNSVDAHATTIDVMIDLPNLSFAVYDDGIGLTRSDLNILATQNYTSKIRKMNDLVTMKTYGYRGDALYSISNVSNLFVCSKKKDYNSAWMRKFPSKSVMLSENTILPIDPFWKICPWSRTKSGTVVIVEDMLYNLPVRRRILKEEPPFKTFNTIKADMLQILVMHPMISLNVQYTDKLRINTEVLFRSKNITEGLTKHQQMSQVLRNVFGAEGHHHHHH”: the “soluble on expression in E. coli” value was “soluble”.

Take “MSLSQIISSNDVDFQAYMAEAEPQAKVLAAEAWRDDLVRTVEHGDQITGAKLPWSKTHDLLRFRPGEVTLWQGINGHGKSELLGQACIGFATQGERVCIASFEMKPQATLKRMLRQTAMNARPGVQAVDRLIDWSRDRLWLYDQQGTVTPAMLYAVIRYCADRLKVRHMVIDSLMKCVRGEDDYNGQKDFVDMLCTLARDLRMHIHLVHHAKKGENEDQVPGKFSAKGSGAIVDQVDQMLTVWRNKKKERIAEAELRKDGEVSADTHDSPDTLLICDKNRHGEWEGRIQLWRHADSLQFTGDKRRQPLDMIGALAEGHHHHHH”: the “soluble on expression in E. coli” value is on record as “soluble”.

“MSLSQNNPLRALLDKQDILLLDGAMATELEARGCNLADSLWSAKVLVENPELIREVHLDYYRAGAQCAITASYQATPAGFAARGLDEAQSKALIGKSVELARKAREAYLAENPQAGTLLVAGSVGPYGAYLADGSEYRGDYHCSVEAFQAFHRPRVEALLDAGADLLACETLPNFSEIEALAELLTAYPRARAWFSFTLRDSEHLSDGTPLRDVVALLAGYPQVVALGINCIALENTTAALQHLHGLTVLPLVVYPNSGEHYDAVSKTWHHHGEHCAQLADYLPQWQAAGARLIGGCCRTTPADIAALKARSEGGSHHHHHH”: the “soluble on expression in E. coli” value is “soluble”.

Consider “MSLSRPLLFALTALSLTAASLAHAADKKAADKPAPSAVSKADKALHDKFLTLDTHLDTPAHFGRPGWDIADHHEVEHDFSQVDLPRMNQGGLDGGFFVVYIGQGELTEKGYTYARDYALHRTIEIREMLAANPDTFEMALTSDDARRIAKAGKKFAFVSMENSWPVGEDLSLVETFYKEGLRMAGPVHFRNNQLADSSTDPKGKIWNGYSPLGLRWLAEANRLGIVIDVSHASDDVVDQSVALSKAPIIASHSGPKAVYDHPRNLDDARLKKIADAGGAICINSIYLTDTTPSPERKAALEALGRAPDMKTATPEAVKAYADKRAAIDKAHPAARGDFDLYMKSMLHVLKVAGPKGVCVGADWDGGGGMDGFEDITDLPKITARLKAEGYSDADIEAIWSGNVLRIVDAAQAYAKSVTKEGHHHHHH”, for which the “soluble on expression in E. coli” value is “soluble”.

With “MSLSRQCVLAGISRAALYARRKPKRIVQDDELLLRLIDEEYTRHPFYGSRKMVVHLGRCGHSVNRKWAQRLMRSLGLAGMAPGPNTSRAHPQHKVYPYLLRGVAISRPNQVWSTDITYIRLARGFAYLVAVIDWYSRRVLSWRISNSMETVFCVDCLEEALRIHGKPEVFNTDQGSQFTSEAFTSVLKREGVIISMDGRGRALDNIFVERLWRSVKHEDVYLKGYSAMGELLIGLTQYFTFYNGERPHQALKNLTPDVVYQRAQGGGAMIVDKYGAAQSLPMALRSTGTAFDEVRLALLCHVTHADAGLSWRCSEGTERKSRDEAWREGHHHHHH”, the “soluble on expression in E. coli” value was “not soluble”.

Take “MSLSSHKPTVVLADSNDDFRSYLTSCLTEEFTIKSFRDGIEAMAYIKNEYPDLVICDTELQNMDGVELSSRLKTSCETSIIPIILYSSHIDINQHNRRKTSLADTFLQQPFSVTDLKLEMSILIKNTRFLRKSFLQRLFGEEFLETKASEILQDGKHPLISKVTKIILENLNNEKLTIDSIAKELGISRTSLYNKWTQLTGEALNKFILKIRMEKAHEMLKSGKYRVNEVPEKIGMKDMDNFREKYKKYFGKTPVDTIKNEGHHHHHH”: the “soluble on expression in E. coli” value is recorded as “soluble”.

On to “MSLSSKRDIEANTDLNSITYIPTFPEPFERDNSHTTASFVSIQIRLLVASVTEENFLDTEHQIYYLLQRGSFSVYISYWKLLIQLFVNEFEAQQQKRDLNLPFRFDFSNLVHRLLYNLAQELITRTPDTIEKVKELALPLSGKYPIRPLFLSFLNKDNESDSAIIEALNPEVHPIFTTLKDLHRTNMSVSNITQNLFAVENKPNFLTMLSEFLKPLQGETLNDWIALILSEILAPGSQTSNQPSQPWIVQVPNVDVREVIEATEMGTKVNGIIKSLGTNNVNWNRVFNLMSTKFFLNKPVNATLSSLNYLFCILNSGPLVDQFFACDWSLYFKLRLSFLMYQWNYNSECLDLSSLPNIKKINKSIPLTKKSQLSLISVGKLNIELFLSRDEISKNPLFSSFHASFSEAYNNVPEYLAAVLISESKYFSLLVDNKSIIDELLISLVIKTYENNVIAFKELLKLVSKQKVIEVSRGIIASQNAQTINLVQALHDLGILDEVFEKLPIRDSLKLSPTAMHLGYLKFSEYIERNITLKTFVPTLDFIEAQTNIDELDEGHHHHHH”, for which the “soluble on expression in E. coli” value was “not soluble”.

For the sequence “MSLSSTSHERLEVEPIDESSILFADDDHYTSDTVCLVTGGGSGIGRATALAMAANGVTAVATDIDADGLAEVADTAADLDLDGAVETVAGDLANDADIEAIVETAASHGTVRYLANIAGLQHIDAIEDFPMEKYDQMHDVMLRAPLALSKRVIPHIRGTDDGVGAIGNMASVHGHYVTSDKVAYNVSKFGLRGLTQSIAAEGGDGLRGFSISTGYVKTPLVVDQIPDTAEQRGISVDEVIDDVMLGQARIKEMMDPIDVANLFVFGFSRHANHLNGGDLLFDGGMTKTYEGHHHHHH”, the “soluble on expression in E. coli” value was “not soluble”.

Take “MSLSTCPAACHCPLEAPKCAPGVGLVRDGCGCCKVCAKQLNEDCSKTQPCDHTKGLECNFGASSTALKGICRAQSEGRPCEYNSRIYQNGESFQPNCKHQCTCIDGAVGCIPLCPQELSLPNLGCPNPRLVKVTGQCCEEWVCDEDSIKDPMEEGHHHHHH”: the “soluble on expression in E. coli” value is “not soluble”.

Source of the values: the DeepSol protein solubility set.
